Measurements reported in article PMC8784147.

Molecular target: HBV core protein dimer (Cp149 dimer, 34 kDa) (hepatitis B virus)
Assay: multi-cycle resistive-pulse sensing

## HBV core protein dimer (Cp149 dimer, 34 kDa) (domain or fragment)
  stoichiometry N: 120 dimers
